Experimental data taken from patent US11091546B2, “Optimized PNE-based chimeric receptor T cell switches and uses thereof” (The Scripps Research Institute, priority 2015, dated 2021).
Values joined by “and” are separate entries in the source; they are usually repeats but may differ in a detail not shown here. Identical values can stand only once. “Also recorded” adds a separate entry of the source.

Columns and labels:
[1] = test system: RS4;11 (CD19 positive); format: cell-based, human
Procedure: Activity was assessed against NALM-6 (CD19^+), RS4;11 (CD19^+), or RPMI-8226 (CD19^−) (Table 2). The activity of the IgG (FcNull) switch was assessed against RS4;11 (CD19^+), or K562 (CD19^−) (Table 2). The activity of the C-terminal switch was assessed against RS4;11 (CD19^+), or K562 (CD19^−) (Table 4).
(§1) sCAR-T cells were co-cultured (96-well plate round bottom; 20-24h; 37° C.; 5% CO2) with RS4;11 (CD19^+) or K562 (CD19^−) cells at a ratio of 10 sCAR-T cells to 1 RS4;11/K562 cell (110,000 cells in total) in 100 uL of RPMI-1640 supplemented with 5% heat inactivated fetal calf serum (Thermo), 1% penicillin-streptomycin (Gibco), 1% L-Glutamine (Gibco), 1 mM sodium pyruvate (Gibco) and 1% non-essential amino acids (Gibco). After 24 hours, each plate was centrifuged at 400×g for 5 minutes at 4° C. To measure target cell lysis, the intracellular protein lactate dehydrogenase (LDH) was measured in the cytotoxicity assay supernatants from the co-cultured cells using the CytoTox 96® Non-Radioactive Cytotoxicity Assay kit (Promega). To measure the effector responses of the sCART cells in vitro, cytokine levels were measured in the cytotoxicity assay supernatants using the Cytometric Bead Array (CBA) Human Th1/Th2 Cytokine Kit II (BD). […]
The GCN4 CAR design was therefore modified to contain the CD8 hinge region (used in CART-19), which has an extracellular CAR domain of approximately 80 Å, and an IgG4 hinge with an extracellular CAR domain of approximately 15-30 Å. An additional construct was developed where a mutation was introduced into the IgG4 hinge that allows for spontaneous disulphide bridge formation between receptor molecules (IgG4m). […] Briefly, activated PBMC were transduced with lentivirus (SEQ ID: 1) containing the anti-PNE CAR construct (SEQ ID: 180) with the CD8 (SEQ ID: 68), IgG4 (SEQ ID: 70) and IgG4m (SEQ ID: 71) hinge domains.
Monovalent and bivalent combinations of these switches were expressed in mammalian protein expression systems (HEK293 or CHO cells) and purified using protein-G columns. Switches were used in cytotoxicity assays at a dose titration within the range of 10 nM to 0.0001 nM. The activity of each switch combination was tested in vitro in the General cytotoxicity assays where LDH release, cytokine production and sCART cell activation were compared (FIGS. 11A-11C).
CAR-T or target cells were incubated with 1 pM to […] of switch in FACS buffer (PBS, 1% FCS, 2 mM EDTA) for 30 minutes at 4° C. before being washed twice and then incubated with the PE-conjugated goat-anti-human kappa antibody (1:100). Cells were washed two times and analyzed using the Accuri flow cytometer (BD). CAR-T cell activity was determined using the CytoTox 96® Non-Radioactive Cytotoxicity Assay (Promega). CAR-T cells were incubated with target cells in the presence of switch for 20-24 hours at 37° C. in complete RPMI with 5% FCS. At the end of the assay, 30 μL of cell free supernatant was added to 30 μL of the LDH assay reagent in a 96-well plate and incubated for 30 minutes at room temperature in the dark; 30 μL of stop solution was added before the plate was read at OD495.

[2] = test system: Nalm-6^Luc/GFP cells; test: Nalm-6 Luc/GFP leukemia xenograft; format: in vivo; conditions: short-dimeric sCAR-T cells; 0.5 mg/kg every other day from day 6
Procedure: NSG mice were inoculated with CD19^+ Nalm-6^GFP/Luc cells. Six days later, 40×10^6 sCAR-T cells were delivered IV and switch dosing commenced every other day at 0.5 mg/kg for 10 days. Tumor burden was followed by luminescence after injection of luciferin and imaged on an in vivo imaging system (IVIS; PerkinElmer, Waltham, Mass., USA).
Asterisks indicate significance from LCNT Fab group. Data are represented as means±SEM, and statistical significance was calculated using the 2-way ANOVA with Bonferroni's post-test (B & E; shown for final time-point only) or by one-tailed student's t-test (C & F) where *=p<0.05, **=p<0.01 and ***=p<0.001.
NSG mice were inoculated with Nalm-6^GFP/Luc as described in FIG. 28. […] A fourth group consisted of two cohorts (n=3) of mice injected I.V. with sCAR-T cells without (−) LCNT Fab switch. LCNT Fab dosing in the indicated group was carried out daily at 0.5 mg/kg after the initial T cell infusion. Luminescence was measured at 6 h and subsequently every 24 h as indicated. Cohorts were sacrificed for analysis immediately following IVIS imaging. […] Gray lines indicate tumor burden in PBS and sCAR-T cell—LCNT Fab controls. […] Data are represented as means±SEM, and statistical significance was calculated using the one-tailed student's t-test (C & D) where *=p<0.05, **=p<0.01 and ***=p<0.001.
NSG mice were inoculated with Nalm6^GFP/Luc and six days later engrafted with short-dimeric sCAR-T cells as described in FIG. 29. […] Dosing was carried out for 15 d starting at day 6 (corresponding with sCAR-T cell infusion) as indicated by gray shading. Control groups CART-19 and PBS received no switch. The NS group received sCAR-T cells but no switch. Open circles denote the death of individual mice without evidence of tumor burden and may reflect GVHD. Triangles in PBS, NS and q.a.d. group indicate death due to increasing tumor burden. […] (19) indicates CART-19. […] (19) indicates CART-19. […] Triangles indicate the death of individual mice with significant tumor burden. The single mouse death in the 0.05 mg/kg group occurred while tumor burden was decreasing. […] Statistical significance was calculated using the one-tailed student's t-test (B, C & E) where *=p<0.05, **=p<0.01 and ***=p<0.001.
The different sCAR designs were tested in a xenograft model harboring luciferized NALM-6 (CD19+, CD80−, CD86−) cells. 1 mg/kg monovalent switch “A” was administered along with sCAR cells. […] Optimized hinge improved response. Short hinge CARs have faster clearance. Short, dimeric hinge CARs have improved persistence. Tumor burden was visualized with IVIS imaging. Experiments are repeated with a humanized scFv and bivalent switches.
Activity of the switchable CAR-T cell platform in vivo was evaluated via tumor regression in a Nalm-6^Luc/GFP leukemia xenograft model in immunodeficient NOD scid gamma (NSG) mice. These mice without treatment succumb to disease within 21 days. The impact of CAR hinge design on in vivo efficacy was determined using mice inoculated with Nalm-6^Luc/GFP, followed by I.V. injection of long, short, or short-dimeric sCAR-T cells 6 days later. The LCNT Fab was dosed I.V. (0.5 mg/kg) every other day for 10 days and tumor regression was followed by in vivo imaging (IVIS) of the luciferase signal from Nalm-6^Luc/GFP cells (FIG. 29A).
The effect of switch grafting position on the control of tumor burden was determined. As with the previous model, short-dimeric CAR-T cells were injected 6 days after tumor inoculation and mice were treated every other day (starting at day 6) with 0.5 mg/kg LCNT, HCNT, NTBV, LCC1, or HCCT Fab switches (FIG. 29D).
To determine the proliferation and localization of sCAR-T cell cytotoxicity during this time interval, mice were sorted into 5 cohorts per treatment regimen and analyzed at 8, 24, 48, 72, and 96 h after treatment with short-dimeric sCAR-T cells+LCNT Fab switch or with conventional CART-19 and no switch. […]

[3] = test system: RS4;11 cells; test: Cytokine release (CBA) in cytotoxicity co-culture; format: cell-based, human; conditions: 1 nM switch
Procedure: as §1
CAR-T or target cells were incubated with 1 pM to […] of switch in FACS buffer (PBS, 1% FCS, 2 mM EDTA) for 30 minutes at 4° C. before being washed twice and then incubated with the PE-conjugated goat-anti-human kappa antibody (1:100). Cells were washed two times and analyzed using the Accuri flow cytometer (BD). CAR-T cell activity was determined using the CytoTox 96® Non-Radioactive Cytotoxicity Assay (Promega). […]

[4] = test system: CD33+ MOLM14 cells; test: Cytotoxicity assay, sCAR-T cells + anti-CD33 (hP67.6) switches; format: cell-based; design: unit not given here; conditions: duplicates
Description: (§2) FIG. 38A illustrates multiple fusion/grafting locations: A=LCNT1 (light chain N terminus version 1), B=HCNT3 (heavy chain N terminus version 3), C=heavy chain C terminus, and D=light chain C terminus). […] Data shown are an average of duplicate samples, and error bars represent SD. Only the NT switches plus the BvCT and By CH1CL1 as references are depicted.
(§3) Monovalent and bivalent combinations of these switches were expressed and tested in cytotoxicity assays at a dose titration within the range of 0.4 nM to 0.0001 nM. […] Data shown are an average of duplicate samples, and error bars represent SD. Only the NT switches plus the BvCT and By CH1CL1 as references are depicted. cytokine secretion was measured.

[5] = test system: MOLM14 cell line; test: Cytokines in cytotoxicity assay supernatant (CBA Human Th1/Th2 II Kit); format: cell-based; design: unit not given here; conditions: duplicates
Description: as §2, §3

## anti-CD19 Fab HCCT: FMC63 anti-CD19 Fab, peptide on C-terminus of heavy chain (SEQ ID 27 & 34)
[1]
  EC50: 0.02 ± 0.0009 nM
[2]
  tumor burden (IVIS), switch graft position comparison: little control

## anti-CD19 Fab NTBV: FMC63 anti-CD19 Fab, peptide on N-terminus of light and heavy chain (SEQ ID 36 & 88)
[3]; CD8 hinge sCAR-T
  cytokine production: induced the greatest cytokine production; also recorded: induced the greatest IL-2 production
[3]; CD8 sCAR-T cells
  increase in IL-2 production: 50%
[2]
  tumor burden (IVIS), switch graft position comparison: greatest reduction in tumor burden

## anti-CD19 Fab WT: FMC63 anti-CD19 Fab with no grafted peptide (SEQ ID 27 & 29) [reference compound]
[1]
  cytotoxicity: did not induce significant cytotoxicity

## anti-CD19 IgG WT: FMC63 anti-CD19 IgG with no grafted peptide (SEQ ID 27 & 28) [reference compound]
[1]
  cytotoxicity: did not induce significant cytotoxicity

B1: hP67.6 HCNT: anti-CD33 hP67.6 Fab, GCN4 on heavy chain N-terminus, rigid linker SEQ ID 45 (SEQ ID 231 & 220) (protein)
light: DIQLTQSPSTLSASVGDRVTITCRASESLDNYGIRFLTWFQQKPGKAPKLLMYAASNQGSGVPSRFSGSGSGTEFTLTISSLQPDDFATYYCQQTKEVPWSFGQGTKVEVKRTVAAPSVFIFPPSDEQLKSGTASVVCLLNNFYPREAKVQWKVDNALQSGNSQESVTEQDSKDSTYSLSSTLTLSKADYEKHKVYACEVTHQGLSSPVTKSFNRGEC
heavy: NYHLENEVARLKKLLVGEAAAKEAAAKAEVQLVQSGAEVKKPGSSVKVSCKASGYTITDSNIHWVRQAPGQSLEWIGYIYPYNGGTDYNQKFKNRATLTVDNPTNTAYMELSSLRSEDTAFYYCVNGNPWLAYWGQGTLVTVSSARTKGPSVFPLAPSSKSTSGGTAALGCLVKDYFPEPVTVSWNSGALTSGVHTFPAVLQSSGLYSLSSVVTVPSSSLGTQTYICNVNHKPSNTKVDKKVEPKSC
modifications: GCN4 on heavy chain N-terminus; Made in lab - CD33 (hP67.6) LCWT; Made in Lab - CD33 (hP67.6) HCNT1
[4]; switch 0.1 pM
  cytotoxicity (FIG. 38G): 0
[4]; switch 3.2 pM
  cytotoxicity (FIG. 38G): 10.3 and 8.3
[4]; switch 16 pM
  cytotoxicity (FIG. 38G): 47.8 and 45.5
[4]; switch 80 pM
  cytotoxicity (FIG. 38G): 65 and 64.4
[4]; switch 400 pM
  cytotoxicity (FIG. 38G): 69.4 and 70.2
[5]
  IFNg in supernatant (FIG. 38H): 1037.59 and 876.36
  Il-2 in supernatant (FIG. 38H): 861.13 and 653
  TNFa in supernatant (FIG. 38H): 114.13 and 87.74
